According to US20150125386A1, “HUMANIZED ANTI-CEACAM5 ANTIBODY AND USES THEREOF” (IMMUNOMEDICS, INC., priority 2013, published 2015):

Experiments:
[1] = tested on: Capan 1 human pancreatic carcinoma; test: In vivo therapy of athymic nude mice bearing Capan 1 pancreatic tumor xenografts with antibody-CL2A-SN-38 conjugates; conditions: Capan 1 s.c. xenograft, FIG. 1
Protocol: FIG. 1. In vivo therapy of athymic nude mice, bearing Capan 1 human pancreatic carcinoma, with antibody-CL2A-SN-38 conjugates.
(§1) The efficacy of drug-conjugated Class III anti-CEA antibody was investigated. Immunoconjugates comprising antibody-SN-38 conjugates were prepared as discussed in U.S. Pat. No. 7,999,083, the Figures and Examples sections of which are incorporated herein by reference. Immune-compromised athymic nude mice (female), bearing subcutaneous human pancreatic or colon tumor xenografts were treated with either specific CL2A-SN-38 conjugate or control conjugate or were left untreated. The therapeutic efficacies of the specific conjugates were observed.

[2] = tested on: LS174T human colon carcinoma; test: In vivo therapy of athymic nude mice bearing LS174T colon carcinoma xenografts; conditions: LS174T s.c. xenograft, FIG. 2
Protocol: FIG. 2. In vivo therapy of athymic nude mice, bearing LS174T human colon carcinoma, with hMN-14-CL2A-SN-38 conjugate.
as §1

[3] = tested on: stage-IV metastatic colonic cancer; test: Therapy of advanced colon cancer patient refractory to prior chemo-immunotherapy with IMMU-130 (Example 4); type: in vivo, human
Protocol: Thereafter, they were given courses of cetuximab, either alone or combined with FOLFIRI (leucovorin, 5-flurouracil, irinotecan) chemotherapy during the next year or more. […] The index lesions chosen by the radiologist for measuring tumor size change by computed tomography were the mid-lobe of the right lung and the liver metastases, both totaling 91 mm as the sum of their longest diameters at the baseline prior to IMMU-130 (anti-CEACAM5-SN-38) therapy.
This patient received doses of 16 mg/kg of IMMU-130 by slow IV infusion every other week for a total of 17 treatment doses.

[4] = tested on: metastatic colonic cancer (Stage IV); test: Therapy of a patient with advanced colonic cancer with IMMU-130 (Example 5); type: in vivo, human
Protocol: This patient is a person initially diagnosed with metastatic colonic cancer (Stage IV). […] Their baseline CEA titer just before this therapy is 15 ng/mL. […] The patient continues their investigational therapy.

gastric adenocarcinoma = test: Gastric cancer patient with stage IV metastatic disease treated with IMMU-130 (Example 6); type: in vivo, human
Protocol: The patient is a person who sought medical attention because of gastric discomfort and pain related to eating for about 6 years, and with weight loss during the past 12 months. […] The patient has their gastric tumor resected, and then has baseline CT measurements of their metastatic tumors.
The patient is then given experimental therapy with IMMU-130 (anti-CEACAM5-SN-38) on a weekly schedule of 8 mg/kg. […] The patient then undergoes a CT study to measure their metastatic tumor sizes and to view the original area of gastric resection.

rectal carcinoma = test: Continuous infusion of labetuzumab-SN-38 in patient with liver metastases of rectal carcinoma (Example 8); type: in vivo, human
Protocol: The patient was previously resected for a rectal carcinoma and receives pre- and post-operative radiochemotherapy as per conventional treatment. […] They then receive a repeat continuous infusion therapy 5 weeks later, now for 3 weeks, at 1 mg/kg.

[5] = tested on: advanced metastatic colon cancer; test: Therapy of advanced metastatic colon cancer with anti-CEACAM5 immunoconjugate (Example 9); type: in vivo, human; conditions: 12 mg/kg every other week, irinotecan-unresponsive
Protocol: The patient is a person who fails prior therapies for metastatic colon cancer. The first line of therapy is FOLFIRINOX+AVASTIN® (built up in a stepwise manner) starting with IROX (Irinotecan+Oxaliplatin) in the first cycle. […] This is followed by surgery to remove tumor tissue. […] This leads to the initiation of the second line regimen (FOLFIRI+Cetuximab). […] Then RF ablation of liver metastases is performed, followed by continuation of adjuvant chemotherapy with FOLFIRINOX+Cetuximab, followed by maintenance Cetuximab for approximately one year. […] This leads to a wedge resection of the lung nodules. Subsequently FOLFIRI+Cetuximab is restarted and continued. Later CT scans show both lung and liver metastases.
At the time of administration of the hMN-14-SN-38 immunoconjugate, the patient has advanced metastatic colon cancer, with metastases of both lung and liver, which is unresponsive to irinotecan (camptothecin). The hMN-14-SN-38 immunoconjugate is administered at a dosage of 12 mg/kg, which is repeated every other week.
The effect of the antibody moiety in improved targeting of the camptothecin accounts for the efficacy of the SN-38 moiety in the cancer that had been previously resistant to unconjugated irinotecan.

[6] = tested on: GW-39 human colonic tumor; test: In vivo therapy of lung metastases of GW-39 human colonic tumors in nude mice; conditions: 250 μg, q4d×8, therapy initiated 14 days after i.v. tumor injection
Protocol: FIG. 3. Survival curves of hMN14-CL-SN-38 treated mice bearing GW-39 lung metastatic disease.
Alternative immunoconjugates, comprising different linkers between the antibody and the SN-38, were prepared as disclosed in U.S. Pat. No. 7,591,994, the Figures and Examples section of which are incorporated herein by reference. A lung metastatic model of colonic carcinoma was established in nude mice by i.v. injection of GW-39 human colonic tumor suspension, and therapy was initiated 14 days later. Specific anti-CEACAM5 antibody conjugates, hMN14-CL1-SN-38 and hMN14-CL2-SN-38, as well as nontargeting anti-CD22 antibody control conjugates, hLL2-CL1-SN-38 and hLL2-CL2-SN-38 and equidose mixtures of hMN14 and SN-38 were injected at a dose schedule of q4d×8, using different doses. […] The dose-responsiveness of therapeutic effect of conjugated antibody was also observed.

metastatic colon cancer = test: Treatment of metastatic colon cancer with P2PDox conjugate of Class III anti-CEA antibody (Example 11); type: in vivo, human; conditions: 8 weeks from treatment begin
Protocol: A prodrug form of 2-pyrrolinodoxorubicin, referred to herein as “P2PDox”, is prepared and conjugated to the hMN-14 antibody as disclosed in U.S. patent application Ser. No. 14/175,089, the Figures and Examples sections of which are incorporated herein by reference.
A person with metastatic colon cancer (3-5 cm diameters) to their left and right liver lobes, as well as a 5 cm metastasis to their right lung, and an elevated blood CEA value of 130 ng/mL, is treated with a 150 mg dose of hMN-14 Class III anti-CEA antibody conjugated to P2PDox at 4 drug molecules per IgG, administered by slow intravenous infusion every other week for 4 doses. […] At the same time, their blood CEA titer is reduced to 30 ng/mL. Repeated courses of therapy continue as their neutropenia normalizes.

[7] = tested on: LS174T human colon adenocarcinoma; test: Biodistribution of 131I-labelled humanized MN-14 IgG in nude mice bearing human colon cancer; type: in vivo
Protocol: The biodistribution of labeled humanized MN-14 IgG in nude mice bearing human colon cancer was determined. For radiolocalization studies, at 4-5 weeks female athymic mice (nu/nu, Harlan, Indianapolis, Ind.) were given s.c. 0.2 ml of a 10% suspension of LS174T human colon adenocarcinoma prepared from a xenograft serially propagated in an athymic mouse (Sharkey et al., Cancer Res., 50: 828-34 (1990)). After waiting 2 weeks for tumor development, the mice were injected i.v. with 20 μCi (about 2 μg) of ^131I-labelled humanized MN-14 antibodies. Groups of 4-5 mice were sacrificed at intervals thereafter, and radioactivity localized in tissues. […] Tumor:nontumor ratios were excellent.

[8] = compared with rituximab; cited from earlier work
[9] = 131I-labelled, i.v., nude mice bearing LS174T

Substance: IMMU-130
- therapeutic efficacy [1]: better efficacies than control hA20-CL2A-SN-38 conjugate
- therapeutic efficacy [2]: more efficacious than non-treatment
- side effects (nausea, diarrhea, fatigue) ([3]; 16 mg/kg IV every other week, after the first treatment and treatments 4 and 5): grade 1 nausea, diarrhea and fatigue
- duration of fatigue after the first infusion ([3]; 16 mg/kg every other week): 2 weeks
- duration of nausea, diarrhea and occasional vomiting ([3]; 16 mg/kg every other week): 2 to 3 days
- alopecia ([3]; 16 mg/kg every other week, after treatment 3): grade 2
- change of sum of index lesions (CT) from baseline ([3]; after 4 treatments, 16 mg/kg every other week): 28.6%
- reduction of sum of index lesions (CT) from baseline ([3]; after 8 treatments): 40.6%
- response according to RECIST criteria ([3]; after 8 treatments): partial remission
- anti-labetuzumab antibody in blood ([3]; after 16 doses): none was detected
- plasma CEA titer ([3]; after the third therapy dose, baseline 12.6 ng/mL): 2.1 ng/mL
- index lesions less than baseline (CT) ([3]; another 2 months after the 8-treatment evaluation): 31.9%
- tolerability ([4]; 6 mg/kg twice weekly for 2 weeks, one week rest, more than 20 doses): tolerated very well, without any major hematological or non-hematological toxicities
- shrinkage of the index tumor lesions ([4]; 8-week evaluation): 21%
- ascites and pleural effusion ([4]; 13 weeks): both decrease
- shrinkage of the index tumor lesions ([4]; 13 weeks): 27%
- plasma CEA titer ([4]; within 2 months of therapy, baseline 15 ng/mL): 1.3 ng/mL
- diarrhea (gastric adenocarcinoma; 8 mg/kg weekly, after 3 weeks): grade 1
- neutropenia (gastric adenocarcinoma; 8 mg/kg weekly, after 3 weeks): grade 2
- decrease of the sum of the metastatic lesions (CT, RECIST) vs. baseline (gastric adenocarcinoma; 8 mg/kg weekly, first CT study on therapy): 23%
- decrease of the sum of all metastatic lesions (CT) (gastric adenocarcinoma; after a total of 13 infusions): 41%
- response by RECIST (gastric adenocarcinoma; after a total of 13 infusions): partial response
- CEA titer (gastric adenocarcinoma; at first CT study, pre-IMMU-130 baseline 14.5 ng/mL): 7.2 ng/mL
- blood CEA (gastric adenocarcinoma; last measurement, after maintenance therapy every third week): 4.8 ng/mL
- liver metastases by CT (rectal carcinoma; continuous infusion 2 mg/kg over 17 days, then 1 mg/kg for 3 weeks, three weeks later): 1 of the liver metastases has disappeared
- blood CEA titer (rectal carcinoma; three weeks after second infusion, 6.3 ng/mL before): 2.4 ng/mL
- nausea and vomiting (rectal carcinoma; while under therapy): grade 2
- neutropenia (rectal carcinoma; while under therapy): grade 2
- response by RECIST criteria [5]: partial response

Substance: hLL2-CL1-SN-38: nontargeting anti-CD22 antibody control conjugate
- median survival [6]: 56 days

Substance: hLL2-CL2-SN-38: nontargeting anti-CD22 antibody control conjugate
- median survival [6]: 77 days

Substance: hMN-14 Class III anti-CEA antibody conjugated to P2PDox
- reduction of the total mean diameters of the 3 target lesions (CT) (metastatic colon cancer; 150 mg every other week for 4 doses): 25%
- response by RECIST1.1 criteria (metastatic colon cancer): good stable disease response
- blood CEA titer (metastatic colon cancer; 130 ng/mL before): 30 ng/mL

Substance: hMN-14: humanized Class III anti-CEA (anti-CEACAM5) antibody; heavy and light chains SEQ ID NO:1 and SEQ ID NO:2
- time of maximum tumor accretion [7, 9]: ≤ 2 days
- tumor accretion of the antibody [7, 9]: excellent tumor accretion
- Tumor:nontumor ratios ([7]; 131I-labelled, nude mice bearing LS174T): excellent
- uptake by the spleen ([7]; compared with mMN-14): higher uptake of hMN-14 by the spleen than there was of mMN-14
- blood clearance ([7]; compared with parental mMN-14): more rapid than the parental mMN-14 antibody

Substance: hRS7-CL2A-SN-38
- therapeutic efficacy [1]: better efficacies than control hA20-CL2A-SN-38 conjugate

Substance: veltuzumab: humanized IgG1 antibody against CD20
- immunogenicity in subjects [8]: less immunogenic in subjects than rituximab
